# Measured values: the RNAGym collection of RNA variant scans (doi:10.1073/pnas.2313332121)
# B1: TPR t1 (parent)
# chain: GACCAAUCUGCCCUCAGAGCUCGAGAACAUCUUCGGAUGCAGAGGAGGCAGGCUUCGGUGGCGCGAUAGCGCCAACGUCCUCAACCUCCAAUGCAUCCCACCACAUGAUGAUGCCUGAAGAGCCUUGGUUUUUUG
# Variants of: B1
# Experiment: polymerase ribozyme fitness, log enrichment relative to wild type (log ratio); higher = more active; in vitro selection for triplet polymerase activity
# In short: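 In triplicate, a single round of in vitro selection was run on each mutant library, PCR-built and transcribed, covering one subunit of a heterodimeric triplet polymerase ribozyme. Frozen incubation at −7 °C followed annealing with a biotinylated primer, partner subunit and triplets, and extended constructs were then gel-excised, streptavidin-captured and taken through RT-PCR. Fitness is the logarithm of genotype enrichment over wild-type enrichment, from inverse-variance-weighted replicate averages of Illumina-sequenced inputs and outputs. […] only genotypes with ≥10 input reads and ≥1 read per output were kept.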
row,Variant,polymerase ribozyme fitness (log ratio)
1,C13G C62A C94U,-3.01
2,C13A G44A,-2.95
3,C13A G44C,-1.83
4,C13G C62G U87C A121C,-3.3
5,C13A G36A G63A C80U,-3.86
6,C13A G52U U55C,-2.87
7,C12U G44C C102U,-2.5
8,C12U G52U A68G A74G,-3.85
9,C13A A18U G42U C123G,-0.827
10,C13A G60A U131A,-2.5
11,C12U G60A G69A,-4.56
12,C13G A29U C34A G61U A111U U133C,-1.41
13,C13A G60U,-1.81
14,C13A C40A C79U,-2.13
15,C12U U38C G71U C101G,-2.11
16,C12U G63U A68C C123U,-4.7
17,C13G A121U,0.0945
18,C13A U21A G47U U109A,-5.74
19,C12U G61U C62U G113A,-4.94
20,C13A G113A,-2.48
21,C13A G113U,-4.1

row,Variant,polymerase ribozyme fitness (log ratio)
1,C13A G44C U116G C124G,-2.72
2,C13A A16U,-0.236
3,C13G C62U G120U,-0.935
4,C13G C22U,-3.6
5,C13A G52U C53U,-3.61
6,C12U G45A A95C U109G G117C A118G,-5.62
7,C12U G57A G113C,-2.33
8,C12U G47U G69A G110C U112G,-7.15
9,C13A C124A,0.0418
10,C12U G44C C79A C89A,-1.32
11,C13A C99A,-6.93
12,C12U G63C G93U,-1.29
13,C12U G42U G52U A66U C72U C115A G117A,-6.98
14,C13A U14C A16C C115A A119G,-2
15,C13A A29G U55A C76G C101G C102A U112C,-8.04
16,C13A A26C C56A G60U C88U G113U C115U,-6.95
17,C12U G39C A121C,0.709
18,C13A A27U G47U,-3.3
19,C13G A84C C102U,-2.71
20,C13G A50C C53G U96G,-3.94
21,C13G C40A A84U U106A,-3.53

row,Variant,polymerase ribozyme fitness (log ratio)
1,C13G C62A C82A,-3.18
2,C12U G47U A119C C123A,-2.6
3,C12U G117A G127C,-0.67
4,C13A A16G U133G,-2.57
5,C12U G71U A90G A121G,1.71
6,C13A G19A G113U,-3.81
7,C13G C62U G113A,-2.67
8,C13G A37G G117C,-4.68
9,C12U U112A C115A,1.79
10,C13A C72A,-2.25
11,C13A C72G,-1.85
12,C12U G42A A90G G128U,-2.7
13,C12U G77C U81G,-1.21
14,C13G C62G,-3.43
15,C13G C62A,-1.11
16,C13A G36C C53G A95C,-4.38
17,C13A A84U G93U G117U,-6.66
18,C13G C15A A29G C64A C82A C104G U109G U131A,-5.2
19,C13A A16U C72U G93A,-3.35
20,C13G A43U G58A,-4.45
21,C13A C70G G93A C104A G110C,-6.34

row,Variant,polymerase ribozyme fitness (log ratio)
1,C13A C70U C114G,-6.69
2,C13A G63U C70U,-0.406
3,C13A A50G C62A,-3.49
4,C13A C53U C56U U59G,-2.18
5,C12U U109G,-3.6
6,C13A G52U C70U,-2.88
7,C13G C64U A95G U112C C124U,0.563
8,C13A G42U C72G,-3.63
9,C13A C73U C79U U132A,-1.98
10,C13A U112C,-0.888
11,C12U U21A G35A A74G,-4.28
12,C12U U130A,-0.0283
13,C12U G44A,-0.615
14,C13A G63A C72U G127C,-3.45
15,C13G C49U C82A C124G U125A,0.252
16,C13G A119G,-0.865
17,C12U G71U,0.0835
18,C12U G69U,1.01
19,C13A G48U A111C,-2.2
20,C12U U21G U38A G61C A103U U112C C115A A118G G127U,-6.24
